According to US20250043012A1:

Biological target: human EGFR (protein used in SPR, ELISA and BLI) (human) (UniProt P00533)
Test: SPR

B1: ER-2b (antibody, part only; not given: Constant region, common trastuzumab light chain, part only)
heavy chain, part: EVQLVESGGGLVQPGGSLRLSCAASGFNIYYAAMHWVRQAPGKGLEWVAFISPYYSYTSYADSVKGRFTISADTSKNTAYLQMNSLRAEDTAVYYCARYFHSSWYESSSPRAYYPGMDYWGQGTLVTVSS
  koff: 5e-05 s⁻¹
  kon: 280000 M⁻¹ s⁻¹
